One block for each binder: values may come before it.
Experiments:
[1] = target: T1, human PD-L1 expressed at the cell surface (human, UniProt Q9NZQ7 19-290); test: flow cytometry on CHO cells transfected with human PD-L1 (FIG. 32A)
T1 construct: whole, on cells; also called cell surface PD-L1; full-length human PD-L1 on transfected CHO cells
Description: (§1) Chinese hamster ovary (CHO) cell lines that express recombinant human PD-L1 at the cell surface were developed and used to determine the specificity of PD-L1 human monoclonal antibodies by flow cytometry. CHO cells were transfected with expression plasmids containing full length cDNA encoding transmembrane forms of PD-L1. […] The cells were washed and binding was detected with a FITC-labeled anti-human IgG Ab. Flow cytometric analyses were performed using a FACScan flow cytometry (Becton Dickinson, San Jose, Calif.). The binding was compared to the parent CHO cell line. […] Binding was also tested using varying concentrations of an anti-PD-L1 antibody.

[2] = target: T1, human PD-L1 expressed at the cell …; test: flow cytometry on CHO cells transfected with human PD-L1 (FIG. 32B)
Description: as §1

[3] = target: T1, human PD-L1 expressed at the cell …; test: flow cytometry, serial dilutions on anti-CD3-activated human T cells
Description: Human or monkey T cells were activated by anti-CD3 antibody to induce PD-L1 expression prior to binding with a human anti-PD-L1 monoclonal antibody. […] An isotype control antibody was used as a negative control. The cells were washed and binding was detected with a FITC-labeled anti-human Ig-kappa light chain Ab. Flow cytometric analyses were performed using a FACScalibur flow cytometer (Becton Dickinson, San Jose, Calif.).

T1 sequence (Q9NZQ7 19-290): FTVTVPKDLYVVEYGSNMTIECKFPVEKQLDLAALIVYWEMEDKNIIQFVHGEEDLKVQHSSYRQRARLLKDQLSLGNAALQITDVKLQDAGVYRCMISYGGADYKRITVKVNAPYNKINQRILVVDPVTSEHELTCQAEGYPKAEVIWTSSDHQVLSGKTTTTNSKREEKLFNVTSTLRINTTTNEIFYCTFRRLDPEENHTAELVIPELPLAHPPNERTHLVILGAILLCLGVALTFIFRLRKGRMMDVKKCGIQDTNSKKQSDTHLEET

binding result [1]: binds
B1: 3G10 human monoclonal antibody (antibody, V domains shown)
VH: QVQLVQSGAEVKKPGASVKVSCKASGYTFTDYGFSWVRQAPGQGLEWMGWITAYNGNTNYAQKLQGRVTMTTDTSTSTVYMELRSLRSDDTAVYYCARDYFYGMDVWGQGTTVTVSS
VL: EIVLTQSPATLSLSPGERATLSCRASQSVSSYLVWYQQKPGQAPRLLIYDASNRATGIPARFSGSGSGTDFTLTISSLEPEDFAVYYCQQRSNWPRTFGQGTKVEIK
notes: Fully human IgG kappa from a KM mouse hybridoma; also called HuMAb 3G10

binding result [2]: binds
B2: 10A5 human monoclonal antibody (antibody, V domains shown)
VH: QVQLVQSGAEVKKPGASVKVSCKASGYTFTSYDVHWVRQAPGQRLEWMGWLHADTGITKFSQKFQGRVTITRDTSASTAYMELSSLRSEDTAVYYCARERIQLWFDYWGQGTLVTVSS
VL: DIQMTQSPSSLSASVGDRVTITCRASQGISSWLAWYQQKPEKAPKSLIYAASSLQSGVPSRFSGSGSGTDFTLTISSLQPEDFATYYCQQYNSYPYTFGQGTKLEIK
notes: Fully human IgG kappa from a KM mouse hybridoma; also called HuMAb 10A5

binding result [3]: binds
B3: 1B12 human monoclonal antibody (antibody, V domains shown)
VH: QVQLVQSGAEVKKPGSSVKVSCKTSGDTFSSYAISWVRQAPGQGLEWMGGIIPIFGRAHYAQKFQGRVTITADESTSTAYMELSSLRSEDTAVYFCARKFHFVSGSPFGMDVWGQGTTVTVSS
VL: not shown
notes: Fully human IgG kappa from a KM mouse hybridoma
